Values quoted from earlier work in PMC2363349.
pKd: −log10 of the molar value.

Molecular target: TGF-βRII (Homo sapiens) (UniProt P37173)
Sequence (P37173 23-166): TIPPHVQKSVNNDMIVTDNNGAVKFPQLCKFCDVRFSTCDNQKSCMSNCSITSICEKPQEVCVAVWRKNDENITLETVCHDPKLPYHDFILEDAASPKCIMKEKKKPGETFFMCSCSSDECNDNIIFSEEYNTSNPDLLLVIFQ

Chain of TGF-β1 (P01137 279-390): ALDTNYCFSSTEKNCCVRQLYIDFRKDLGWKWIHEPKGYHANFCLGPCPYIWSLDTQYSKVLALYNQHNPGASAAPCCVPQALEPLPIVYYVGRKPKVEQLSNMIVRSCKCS

Substance: TGF-β1 (from UniProt P01137)
- pKd: 9.30
